Reference: PMC11032447

B1: mouse secretagogin [mouse] / helix-b of the Habc domain of mouse syntaxin-4 [mouse] (parent)
chain 1: MDNARRKTPARLDAACFWQIWQRFDKEEKGYIRETELDAFFDHLLAKSGTEDTLMEENVQKVKEQLMTSHNVSKEGRILMKELASMFLSEDENFLLFFRLETPLDNSVEFMQIWRKYDADSSGFISAAELCNFLRDLFLHHKKNISEAELEEYTSTMMKIFDKNKDGRLDLNDLARILALQENFLLQFKMDASSTEERKRDFEKIFAHYDVSKTGALEGPEVDGFVKDMMELVQPSISGVDLDKFREILLRHCDVNKDGKIQKSELALCLGLKINP
chain 2: TPLPEESMKQGLQNLREEIKQLGREVRAQLKAIEPQKE

Variants of: B1
Assay: ITC
Design: reference not given here
Conditions: with helix-b of the Habc domain of mouse syntaxin-4 [mouse]

In order of rising ratio to parent:
1. chain 1 MDNARRKTPARLDAACFWQIWQRFDKEEKGYIRETELDAFFDHLLAKSGTEDTLMEENVQKVKEQLMTSHNVSKEGRILMKELASMFLSEDENFLLFFRLETPLDNSVEFMQIWRKYDADSSGFISAAELCNFLRDLFLHHKKNISEAELEEYTSTMMKIFDKNKDGRLDLNDLARILALQENFLLQFKMDASSTEERKRDFEKIFAHYDVSKTGALEGPEVDGFVKDMMELAQPSISGVDLDKFREILLRHCDVNKDGKIQKSELALCLGLKINP [chain 1 V233A]  0.31
2. chain 1 MDNARRKTPARLDAACFWQIWQRFDKEEKGYIRETELDAFFDHLLAKSGTEDTLMEENVQKVKEQLMTSHNVSKEGRILMKELASMFLSEDENFLLFFRLETPLDNSVEFMQIWRKYDADSSGFISAAELCNFLRDLFLHHKKNISEAELEEYTSTMMKIFDKNKDGRLDLNDLARILALQENFLLQFKMDASSTEEAKRDFEKIFAHYDVSKTGALEGPEVDGFVKDMMELVQPSISGVDLDKFREILLRHCDVNKDGKIQKSELALCLGLKINP [chain 1 R198A]  1.99
3. chain 1 MDNARRKTPARLDAACFWQIWQRFDKEEKGYIRETELDAFFDHLLAKSGTEDTLMEENVQKVKEQLMTSHNVSKEGRILMKELASMFLSEDENFLLFFRLETPLDNSVEFMQIWRKYDADSSGFISAAELCNFLRDLFLHHKKNISEAELEEYTSTMMKIFDKNKDGRLDLNDLARILALQENFLLQFKMDASSTEERKRDFEKIFAHYDVSKTGALEGPEVDGFVKDAMELVQPSISGVDLDKFREILLRHCDVNKDGKIQKSELALCLGLKINP [chain 1 M229A]  3.98
4. chain 1 MDNARRKTPARLDAACFWQIWQRFDKEEKGYIRETELDAFFDHLLAKSGTEDTLMEENVQKVKEQLMTSHNVSKEGRILMKELASMFLSEDENFLLFFRLETPLDNSVEFMQIWRKYDADSSGFISAAELCNFLRDLFLHHKKNISEAELEEYTSTMMKIFDKNKDGRLDLNDLARILALQENFLLQFKMDASSTEERKRDFEKIFAHYDVSKTGALEGPEVDGFVKDEMELVQPSISGVDLDKFREILLRHCDVNKDGKIQKSELALCLGLKINP [chain 1 M229E]  12.8
5. chain 1 MDNARRKTPARLDAACFWQIWQRFDKEEKGYIRETELDAFFDHLLAKSGTEDTLMEENVQKVKEQLMTSHNVSKEGRILMKELASMFLSEDENFLLFFRLETPLDNSVEFMQIWRKYDADSSGFISAAELCNFLRDLFLHHKKNISEAELEEYTSTMMKIFDKNKDGRLDLNDLARILALQENFLLQFKMDASSTEERKRDFEKIFAHYDVSKTGALEGPEVDGFVKDMMELVQPSISGVDLDKFREILLRHCDVNKDGKIQKSELALCAGLKINP [chain 1 L270A]  39.8
